Data published in article PMC7697860.
Several values for one entry are separate records, joined by “and”; a condition that tells them apart may be missing. Equal entries are not always repeated.

Key:
[1] = molecular target: PfPV1 with Strep-tag at the C-terminus (PfPV1-Strep) (Plasmodium falciparum 3D7); experiment: negative-stain electron microscopy with 2D classification
[2] = molecular target: PfPV1 with Strep-tag at the C-terminus (PfPV1-Strep) (Plasmodium falciparum 3D7); experiment: […] (pH 6.8), 200 mM NaCl, 0.5 mL/min
[3] = molecular target: PfPV1 with Strep-tag at the C-terminus (PfPV1-Strep) (Plasmodium falciparum 3D7); experiment: native gel or EMSA
[4] = molecular target: PfPV1 with Strep-tag at the C-terminus (PfPV1-Strep) (Plasmodium falciparum 3D7); experiment: AUC

“PfPV1 with Strep-tag at the C-terminus (PfPV1-Strep) (natural protein)” was tested, and the stoichiometry N [1] was 4, the stoichiometry N [2] was 4 and 3 and the stoichiometry N [3] was 3. For the same substance, the stoichiometry N [4] was 4 and 3 and 2, the weight fraction w of the component assigned to the tetramer (A4, 222 kDa) [4] was 24% and the weight fraction w of the component assigned to the tetramer (B3, 215 kDa) [4] was 17.5%. The weight fraction w of the component assigned to the trimer (A3, 139 kDa) [4] was 6.8% and the weight fraction w of the component assigned to the trimer (B2, 141 kDa) [4] was 48.1%.
